Target: recombinant biotinylated HIP1 protein (UniProt O00291)
Experiment: SPR

UniProt O00291, sequence (O00291 whole entry): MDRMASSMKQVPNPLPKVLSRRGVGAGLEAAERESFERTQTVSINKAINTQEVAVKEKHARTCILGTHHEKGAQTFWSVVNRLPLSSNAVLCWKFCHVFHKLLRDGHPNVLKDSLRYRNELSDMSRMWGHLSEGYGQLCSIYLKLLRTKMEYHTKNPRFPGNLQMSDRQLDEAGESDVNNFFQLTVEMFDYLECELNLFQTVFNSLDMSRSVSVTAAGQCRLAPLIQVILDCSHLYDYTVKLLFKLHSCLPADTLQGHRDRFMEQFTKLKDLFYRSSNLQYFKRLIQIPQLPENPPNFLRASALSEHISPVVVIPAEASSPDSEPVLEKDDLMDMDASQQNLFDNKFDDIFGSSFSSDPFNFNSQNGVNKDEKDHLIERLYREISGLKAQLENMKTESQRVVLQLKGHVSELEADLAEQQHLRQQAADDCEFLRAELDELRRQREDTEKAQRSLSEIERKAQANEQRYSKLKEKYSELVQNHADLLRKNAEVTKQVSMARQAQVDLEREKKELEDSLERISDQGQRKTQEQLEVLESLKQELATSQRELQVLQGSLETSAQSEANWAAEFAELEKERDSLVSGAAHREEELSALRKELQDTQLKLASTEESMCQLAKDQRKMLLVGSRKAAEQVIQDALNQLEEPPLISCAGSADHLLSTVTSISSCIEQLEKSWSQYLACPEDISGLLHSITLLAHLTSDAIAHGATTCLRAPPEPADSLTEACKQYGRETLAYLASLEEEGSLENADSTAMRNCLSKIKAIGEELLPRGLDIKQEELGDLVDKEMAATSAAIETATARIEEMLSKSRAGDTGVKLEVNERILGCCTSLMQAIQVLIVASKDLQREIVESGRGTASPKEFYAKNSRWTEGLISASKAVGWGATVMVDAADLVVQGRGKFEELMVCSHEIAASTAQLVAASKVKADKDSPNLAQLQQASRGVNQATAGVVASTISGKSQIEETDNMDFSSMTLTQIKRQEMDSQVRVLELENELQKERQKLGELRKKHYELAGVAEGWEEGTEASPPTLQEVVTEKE

Kd [µM]	Substance
137	K48-linked Ub2 (SPR analyte) (from UniProt P0CG48)
66.2	K48-linked Ub3 (SPR analyte) (from UniProt P0CG48)
0.07	K48/K63-linked branched Ub3 (SPR analyte) (from UniProt P0CG48)
1.89	K63-linked Ub2 (SPR analyte) (from UniProt P0CG48)
1.55	K63-linked Ub3 (SPR analyte) (from UniProt P0CG48)
197	mono Ub (SPR analyte) (from UniProt P0CG48 1-76) (natural protein)
